# Assay results from article PMC6222095.
# Values joined by “and” are separate entries in the source; they are usually repeats but may differ in a detail not shown here. Equal entries are not always repeated.
# Columns and labels:
# [1] = biological target: complement factor H, double homozygous His-402/Val-62 allotype (human) (UniProt P08603); assay: native MS; Q-ToF nanoflow, FH at about 4 mg/ml (3.9 mg/ml, 25.3 μM) in 140 mM ammonium acetate, pH 7.0; peak integration
# [2] = biological target: complement factor H, double homozygous His-402/Val-62 allotype (human) (UniProt P08603); assay: SAXS; concentration dependence of Guinier I(0)/c at 0.4-3.3 mg/ml in HEPES buffer, two samples of each allotype; KD estimated assuming a monomer-dimer equilibrium (dimer to monomers)
# [3] = biological target: complement factor H, double homozygous His-402/Val-62 allotype (human) (UniProt P08603); assay: SPR; Biacore X100, 800 RU of full-length FH amine-coupled to a CM3 chip, FH allotypes flowed at 1.3-12.3 μM, 25 °C, HEPES buffer; estimated KD from steady-state 1:1 affinity fit of maximum responses; sensorgrams did not fit a 1:1 kinetic model
# [4] = biological target: complement factor H, double homozygous His-402/Val-62 allotype (human) (UniProt P08603); assay: AUC; sedimentation velocity, 20 °C, 50,000 and 60,000 rpm, HEPES buffer (10 mM HEPES, 137 mM NaCl, pH 7.4), five samples of each allotype at 0.5, 1.1 and 2.1 mg/ml; c(s) peak integration; dimer and trimer percentages at 1.1 mg/ml
# [5] = biological target: complement factor H, double homozygous His-402/Val-62 allotype (human) (UniProt P08603); assay: native MS; Q-ToF nanoflow, FH at about 4 mg/ml (4.4 or 3.6 mg/ml) in 1 M ammonium acetate, pH 7.0; peak integration
# [6] = biological target: complement factor H, homozygous Tyr-402, homozygous or heterozygous at I62V (human) (UniProt P08603); assay: SAXS; concentration dependence of Guinier I(0)/c at 0.4-3.3 mg/ml in HEPES buffer, two samples of each allotype; KD estimated assuming a monomer-dimer equilibrium (dimer to monomers)
# [7] = biological target: complement factor H, homozygous Tyr-402, homozygous or heterozygous at I62V (human) (UniProt P08603); assay: AUC; sedimentation velocity, 20 °C, 50,000 and 60,000 rpm, HEPES buffer (10 mM HEPES, 137 mM NaCl, pH 7.4), five samples of each allotype at 0.5, 1.1 and 2.1 mg/ml; c(s) peak integration; dimer and trimer percentages at 1.1 mg/ml
# [8] = biological target: complement factor H, homozygous Tyr-402/Val-62 allotype (human) (UniProt P08603); assay: native MS; Q-ToF nanoflow, FH at about 4 mg/ml (3.9 mg/ml, 25.3 μM) in 140 mM ammonium acetate, pH 7.0; peak integration
# [9] = biological target: complement factor H, homozygous Tyr-402/Val-62 allotype (human) (UniProt P08603); assay: SPR; Biacore X100, 800 RU of full-length FH amine-coupled to a CM3 chip, FH allotypes flowed at 1.3-12.3 μM, 25 °C, HEPES buffer; estimated KD from steady-state 1:1 affinity fit of maximum responses; sensorgrams did not fit a 1:1 kinetic model
# [10] = biological target: complement factor H, homozygous Tyr-402/Val-62 allotype (human) (UniProt P08603); assay: native MS; Q-ToF nanoflow, FH at about 4 mg/ml (4.4 or 3.6 mg/ml) in 1 M ammonium acetate, pH 7.0; peak integration
# [11] = biological target: recombinant FH SCR-6/8 Tyr-402 (human); assay: SPR; Biacore X100, 150 RU (His-402 also 400 RU) of SCR-6/8 amine-coupled to a CM4 chip, SCR-6/8 allotypes flowed at 5-40 μM, 25 °C, HEPES buffer with 0.3 mg/ml nonspecific binding reducer; steady-state fits
# [12] = biological target: recombinant FH SCR-6/8 His-402 (human); assay: as above
substance,measurement,setting,value
"complement factor H, double homozygous His-402/Val-62 allotype (from UniProt P08603 19-1231) (natural protein)",percent dimer,[1],17%
same,percent trimer,[1],6%
same,stoichiometry N,[1],< 3
same,Kd,[2],11 µM and 22 µM
same,Kd,[3],6.7 µM
same,percent dimer,[4],5.7%
same,percent oligomers (peaks 2-9),[4],12.8%
same,percent trimer,[4],2.5%
same,stoichiometry N,[4],< 9
same,percent dimer,[5],2%
same,stoichiometry N,[5],2
"complement factor H, homozygous Tyr-402, homozygous or heterozygous at I62V (from UniProt P08603 19-1231) (natural protein)",Kd,[6],16 µM and 18 µM
same,percent dimer,[7],4%
same,percent oligomers (peaks 2-9),[7],11.7%
same,percent trimer,[7],2.1%
same,stoichiometry N,[7],< 9
"complement factor H, homozygous Tyr-402/Val-62 allotype (from UniProt P08603 19-1231) (natural protein)",percent dimer,[8],24%
same,percent trimer,[8],4%
same,stoichiometry N,[8],< 3
same,Kd,[9],8 µM
same,percent dimer,[10],10%
same,stoichiometry N,[10],2
recombinant FH SCR-6/8 His-402 (domain or fragment),Kd,[11],> 40 µM
same,Kd,[12],> 40 µM
recombinant FH SCR-6/8 Tyr-402 (domain or fragment),Kd,[11],> 40 µM
same,Kd,[12],> 40 µM
